In data set [1] the target is T1, LIN54 DBD-C (Homo sapiens, UniProt Q6MZP7 589-646). In words: NMR HSQC titration; 35 mM MES, 75 mM NaCl, pH 6.0, 25 C; ITC (25 C) and FP: 20 mM Tris, 150 mM NaCl, 0.1% Tween 20, pH 8.0; NMR: 35 mM MES, 75 mM NaCl, 5% D2O, pH 6.0, 25 C. The settings on record: protein: recombinant; tags: N-terminal GST with TEV site, cleaved; blunt.
A further data set concerns the target LIN54 DBD Y610F (Homo sapiens, UniProt Q6MZP7 515-646, Y610F). In words: ITC; ITC (25 C) and FP: 20 mM Tris, 150 mM NaCl, 0.1% Tween 20, pH 8.0; NMR: 35 mM MES, 75 mM NaCl, 5% D2O, pH 6.0, 25 C. The settings on record: protein: recombinant; tags: N-terminal GST with TEV site, cleaved; blunt.
For data set [2], the target named is T2, LIN54 DBD (Homo sapiens, UniProt Q6MZP7 515-646). The data set is described as above. The settings on record: protein: recombinant; tags: N-terminal GST with TEV site, cleaved; blunt.
T2 sequence (Q6MZP7 515-646): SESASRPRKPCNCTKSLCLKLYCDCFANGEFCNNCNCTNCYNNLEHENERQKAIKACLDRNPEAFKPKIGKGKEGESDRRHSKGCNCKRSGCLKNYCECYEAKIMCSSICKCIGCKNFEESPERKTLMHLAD
Another data set addresses LIN54 DBD Y536A (Homo sapiens, UniProt Q6MZP7 515-646, Y536A). Described as above. The settings on record: protein: recombinant; tags: N-terminal GST with TEV site, cleaved; blunt.
For another data set, the target named is LIN54 DBD Y536F (Homo sapiens, UniProt Q6MZP7 515-646, Y536F). The data set is described as above. The settings on record: protein: recombinant; tags: N-terminal GST with TEV site, cleaved; blunt.
LIN54 DBD Y536F, sequence (Q6MZP7 515-646 Y536F): as the sequence (Q6MZP7 515-646) above, with Y22F counted along it
The next data set addresses LIN54 DBD Y536R (Homo sapiens, UniProt Q6MZP7 515-646, Y536R). The data set is described as above. The settings on record: protein: recombinant; tags: N-terminal GST with TEV site, cleaved; blunt.
In another data set the target is LIN54 DBD Y610R (Homo sapiens, UniProt Q6MZP7 515-646, Y610R). The description is as above. The settings on record: protein: recombinant; tags: N-terminal GST with TEV site, cleaved; blunt.
LIN54 DBD Y610R, sequence (Q6MZP7 515-646 Y610R): as the sequence (Q6MZP7 515-646) above, with Y96R counted along it
For the next data set, the target named is LIN54 DBD Y610A (Homo sapiens, UniProt Q6MZP7 515-646, Y610A). The description is as above. The settings on record: protein: recombinant; tags: N-terminal GST with TEV site, cleaved; blunt.
LIN54 DBD Y610A, sequence (Q6MZP7 515-646 Y610A): as the sequence (Q6MZP7 515-646) above, with Y96A counted along it
In another data set the target is LIN54 DBD-N (Homo sapiens, UniProt Q6MZP7 515-574). In words: fluorescence polarization; ITC (25 C) and FP: 20 mM Tris, 150 mM NaCl, 0.1% Tween 20, pH 8.0; NMR: 35 mM MES, 75 mM NaCl, 5% D2O, pH 6.0, 25 C. The settings on record: protein: recombinant; tags: N-terminal GST with TEV site, cleaved; label: 3' TAMRA on strand 1; blunt.
LIN54 DBD-N, sequence (Q6MZP7 515-574): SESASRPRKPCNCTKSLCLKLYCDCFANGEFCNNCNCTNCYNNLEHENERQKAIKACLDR
The target in data set [3] is T2, LIN54 DBD. The data set is described as above. The settings on record: protein: recombinant, tags: N-terminal GST with TEV site, cleaved, blunt.
Data set [4] deals with T1, LIN54 DBD-C. The description is as above. The settings on record: protein: recombinant; tags: N-terminal GST with TEV site, cleaved; label: 3' TAMRA on strand 1; blunt.

T1 sequence (Q6MZP7 589-646): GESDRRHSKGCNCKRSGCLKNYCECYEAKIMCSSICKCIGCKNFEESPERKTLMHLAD
LIN54 DBD Y536R, sequence (Q6MZP7 515-646 Y536R): as the sequence (Q6MZP7 515-646) above, with Y22R counted along it
LIN54 DBD Y536A, sequence (Q6MZP7 515-646 Y536A): as the sequence (Q6MZP7 515-646) above, with Y22A counted along it
LIN54 DBD Y610F, sequence (Q6MZP7 515-646 Y610F): as the sequence (Q6MZP7 515-646) above, with Y96F counted along it

B1: CHR13 (dsDNA)
DNA 1: GAGTTTGAAACTG
DNA 2: CAGTTTCAAACTC
For B1, the results for the Kd with LIN54 DBD-C [1] and with LIN54 DBD [2] were 500 ± 100 µM and 2.8 ± 0.1 µM, respectively. Besides, the binding result in the data set with LIN54 DBD Y610F, in the data set with LIN54 DBD Y536A, with LIN54 DBD Y536F, with LIN54 DBD Y536R, with LIN54 DBD Y610R and in the data set with LIN54 DBD Y610A was “no binding” in each case.

B2: CHR27 (dsDNA)
DNA 1: CCTTTAGCGCGGTGAGTTTGAAACTGTAA
DNA 2: TTACAGTTTCAAACTCACCGCGCTAAAGG
As for B2, the binding result with LIN54 DBD-N and in the data set with LIN54 DBD-C [4] was “no binding” each time. The Kd with LIN54 DBD [3] (label: 3' TAMRA on strand 1) stood at 0.43 ± 0.08 µM.

B3: CHR13 (FP) (dsDNA)
DNA 1: GAGTTTGAAACTG
DNA 2: CAGTTTCAAACTC
In the case of B3, in the data set with LIN54 DBD [3], the dissociation constant Kd turned out to be 5 ± 2 µM.

Source of the values: article PMC4974476, “Structural basis for LIN54 recognition of CHR elements in cell cycle-regulated promoters”.
